Data on one variant can be found in PMC5025857, “Redox-dependent Regulation of Gluconeogenesis by a Novel Mechanism Mediated by a Peroxidatic Cysteine of Peroxiredoxin” (Scientific Reports, 2016).

First the molecules themselves.
B1: Tsa1 (wild type) [S. cerevisiae] / HA-tagged Pyk1 (HA-Pyk1) [S. cerevisiae] (parent)
chain 1: MVAQVQKQAPTFKKTAVVDGVFDEVSLDKYKGKYVVLAFIPLAFTFVCPTEIIAFSEAAKKFEEQGAQVLFASTDSEYSLLAWTNIPRKEGGLGPINIPLLADTNHSLSRDYGVLIEEEGVALRGLFIIDPKGVIRHITINDLPVGRNVDEALRLVEAFQWTDKNGTVLPCNWTPGAATIKPTVEDSKEYFEAANK
chain 2: MSRLERLTSLNVVAGSDLRRTSIIGTIGPKTNNPETLVALRKAGLNIVRMNFSHGSYEYHKSVIDNARKSEELYPGRPLAIALDTKGPEIRTGTTTNDVDYPIPPNHEMIFTTDDKYAKACDDKIMYVDYKNITKVISAGRIIYVDDGVLSFQVLEVVDDKTLKVKALNAGKICSHKGVNLPGTDVDLPALSEKDKEDLRFGVKNGVHMVFASFIRTANDVLTIREVLGEQGKDVKIIVKIENQQGVNNFDEILKVTDGVMVARGDLGIEIPAPEVLAVQKKLIAKSNLAGKPVICATQMLESMTYNPRPTRAEVSDVGNAILDGADCVMLSGETAKGNYPINAVTTMAETAVIAEQAIAYLPNYDDMRNCTPKPTSTTETVAASAVAAVFEQKAKAIIVLSTSGTTPRLVSKYRPNCPIILVTRCPRAARFSHLYRGVFPFVFEKEPVSDWTDDVEARINFGIEKAKEFGILKKGDTYVSIQGFKAGAGHSNTLQVSTV

One experiment covers variants of B1. The experiment in a line: pull-down (co-IP with anti-HA beads, anti-Tsa1 immunoblot, band quantification). Conditions: +DTT, lane 9, lysate 67 μg/lane and 111 μg/lane for HA-Pyk1 and Tsa1, parent: 1.
Consider chain 1 C48T C171T, for which the ratio to parent turned out to be 0.5.

The experiment is the same for the next values; noted with them: +DTT, lane 9, lysate 67 μg/lane and 111 μg/lane for HA-Pyk1 and Tsa1, parent: 3.1.
In the case of chain 1 C48T C171T, the screen value (% of Total Tsa1) stood at 1.3.
